T1: FcγRIIb (human, UniProt P31994 43-217)
T1 construct: extracellular domain; also called FcgRIIb; 2b; not shown: His tag at the C terminus
T1 sequence (looked up): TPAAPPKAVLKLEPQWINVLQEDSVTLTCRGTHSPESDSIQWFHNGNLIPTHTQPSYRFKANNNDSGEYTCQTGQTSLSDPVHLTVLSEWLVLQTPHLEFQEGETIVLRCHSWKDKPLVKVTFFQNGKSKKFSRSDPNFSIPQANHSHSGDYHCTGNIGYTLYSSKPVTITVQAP

T2: FcγRIIa R (human, UniProt P12318 34-217)
T2 construct: extracellular domain; also called FcgRIIa R type; 2aR; not shown: His tag at the C terminus
T2 sequence (looked up): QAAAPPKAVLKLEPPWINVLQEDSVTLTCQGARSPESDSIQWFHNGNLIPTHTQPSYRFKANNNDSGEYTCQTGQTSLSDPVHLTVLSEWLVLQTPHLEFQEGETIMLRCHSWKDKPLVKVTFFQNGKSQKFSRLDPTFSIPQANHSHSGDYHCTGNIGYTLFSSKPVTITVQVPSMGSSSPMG


How the values were obtained:
FcγRIIb = biological target: T1, FcγRIIb; assay: SPR, relative to GpH7-A5/GpH7-B3/GpL16-k0
FcγRIIa R [1] = biological target: T2, FcγRIIa R; assay: SPR, relative to GpH7-A5/GpH7-B3/GpL16-k0
FcγRIIa R [2] = biological target: T2, FcγRIIa R; assay: SPR; He/Con_2aR divided by He/Con_2b (FcγRIIa R over FcγRIIb)

Row | Binder | He/Con_2b (FcγRIIb) [control = 100] | He/Con_2aR (FcγRIIa R [1]) [control = 100] | He_2aR/2b (FcγRIIa R [2]) [ratio]
1 | GpH7-A5/GpH7-B3 variant G237_09D/GpL16-k0 (antibody, human IgG1, kappa, Heterodimerized anti-glypican-3 IgG1; mutation in the GpH7-B3 chain only; also called He Ab) heavy 1: not shown heavy 2: not shown light: DIVMTQSPLSLPVTPGEPASISCQASESLVHSNRNTYLHWYLQKPGQSPQLLIYKVSNRFSGVPDRFSGSGSGTDFTLKISRVEAEDVGVYYCSQNTHVPPTFGQGTKVEIERTVAAPSVFIFPPSDEQLKSGTASVVCLLNNFYPREAKVQWKVDNALQSGNSQESVTEQDSKDSTYSLSSTLTLSKADYEKHKVYACEVTHQGLSSPVTKSFNRGEC | 223 | 156 | 0.7
2 | GpH7-A5/GpH7-B3 variant G237_20W/GpL16-k0 (antibody, human IgG1, kappa, Heterodimerized anti-glypican-3 IgG1; mutation in the GpH7-B3 chain only; also called He Ab) heavy 1: not shown heavy 2: not shown light: DIVMTQSPLSLPVTPGEPASISCQASESLVHSNRNTYLHWYLQKPGQSPQLLIYKVSNRFSGVPDRFSGSGSGTDFTLKISRVEAEDVGVYYCSQNTHVPPTFGQGTKVEIERTVAAPSVFIFPPSDEQLKSGTASVVCLLNNFYPREAKVQWKVDNALQSGNSQESVTEQDSKDSTYSLSSTLTLSKADYEKHKVYACEVTHQGLSSPVTKSFNRGEC | 193 | 138 | 0.71
3 | GpH7-A5/GpH7-B3 variant H268_10E/GpL16-k0 (antibody, human IgG1, kappa, Heterodimerized anti-glypican-3 IgG1; mutation in the GpH7-B3 chain only; also called He Ab) heavy 1: not shown heavy 2: not shown light: DIVMTQSPLSLPVTPGEPASISCQASESLVHSNRNTYLHWYLQKPGQSPQLLIYKVSNRFSGVPDRFSGSGSGTDFTLKISRVEAEDVGVYYCSQNTHVPPTFGQGTKVEIERTVAAPSVFIFPPSDEQLKSGTASVVCLLNNFYPREAKVQWKVDNALQSGNSQESVTEQDSKDSTYSLSSTLTLSKADYEKHKVYACEVTHQGLSSPVTKSFNRGEC | 230 | 148 | 0.64
4 | GpH7-A5/GpH7-B3 variant H268_02A/GpL16-k0 (antibody, human IgG1, kappa, Heterodimerized anti-glypican-3 IgG1; mutation in the GpH7-B3 chain only; also called He Ab) heavy 1: not shown heavy 2: not shown light: DIVMTQSPLSLPVTPGEPASISCQASESLVHSNRNTYLHWYLQKPGQSPQLLIYKVSNRFSGVPDRFSGSGSGTDFTLKISRVEAEDVGVYYCSQNTHVPPTFGQGTKVEIERTVAAPSVFIFPPSDEQLKSGTASVVCLLNNFYPREAKVQWKVDNALQSGNSQESVTEQDSKDSTYSLSSTLTLSKADYEKHKVYACEVTHQGLSSPVTKSFNRGEC | 167 | 133 | 0.8
5 | GpH7-A5/GpH7-B3 variant H268_09D/GpL16-k0 (antibody, human IgG1, kappa, Heterodimerized anti-glypican-3 IgG1; mutation in the GpH7-B3 chain only; also called He Ab) heavy 1: not shown heavy 2: not shown light: DIVMTQSPLSLPVTPGEPASISCQASESLVHSNRNTYLHWYLQKPGQSPQLLIYKVSNRFSGVPDRFSGSGSGTDFTLKISRVEAEDVGVYYCSQNTHVPPTFGQGTKVEIERTVAAPSVFIFPPSDEQLKSGTASVVCLLNNFYPREAKVQWKVDNALQSGNSQESVTEQDSKDSTYSLSSTLTLSKADYEKHKVYACEVTHQGLSSPVTKSFNRGEC | 239 | 149 | 0.62
6 | GpH7-A5/GpH7-B3 variant H268_13S/GpL16-k0 (antibody, human IgG1, kappa, Heterodimerized anti-glypican-3 IgG1; mutation in the GpH7-B3 chain only; also called He Ab) heavy 1: not shown heavy 2: not shown light: DIVMTQSPLSLPVTPGEPASISCQASESLVHSNRNTYLHWYLQKPGQSPQLLIYKVSNRFSGVPDRFSGSGSGTDFTLKISRVEAEDVGVYYCSQNTHVPPTFGQGTKVEIERTVAAPSVFIFPPSDEQLKSGTASVVCLLNNFYPREAKVQWKVDNALQSGNSQESVTEQDSKDSTYSLSSTLTLSKADYEKHKVYACEVTHQGLSSPVTKSFNRGEC | 160 | 127 | 0.8

Results, then the binder that gave them:

Row | He/Con_2b (FcγRIIb) [control = 100] | He/Con_2aR (FcγRIIa R [1]) [control = 100] | He_2aR/2b (FcγRIIa R [2]) [ratio] | Binder
7 | 199 | 147 | 0.74 | GpH7-A5/GpH7-B3 variant K326_07I/GpL16-k0 (antibody, human IgG1, kappa, Heterodimerized anti-glypican-3 IgG1; mutation in the GpH7-B3 chain only; also called He Ab) heavy 1: not shown heavy 2: not shown light: DIVMTQSPLSLPVTPGEPASISCQASESLVHSNRNTYLHWYLQKPGQSPQLLIYKVSNRFSGVPDRFSGSGSGTDFTLKISRVEAEDVGVYYCSQNTHVPPTFGQGTKVEIERTVAAPSVFIFPPSDEQLKSGTASVVCLLNNFYPREAKVQWKVDNALQSGNSQESVTEQDSKDSTYSLSSTLTLSKADYEKHKVYACEVTHQGLSSPVTKSFNRGEC
8 | 172 | 105 | 0.61 | GpH7-A5/GpH7-B3 variant L328_10E/GpL16-k0 (antibody, human IgG1, kappa, Heterodimerized anti-glypican-3 IgG1; mutation in the GpH7-B3 chain only; also called He Ab) heavy 1: not shown heavy 2: not shown light: DIVMTQSPLSLPVTPGEPASISCQASESLVHSNRNTYLHWYLQKPGQSPQLLIYKVSNRFSGVPDRFSGSGSGTDFTLKISRVEAEDVGVYYCSQNTHVPPTFGQGTKVEIERTVAAPSVFIFPPSDEQLKSGTASVVCLLNNFYPREAKVQWKVDNALQSGNSQESVTEQDSKDSTYSLSSTLTLSKADYEKHKVYACEVTHQGLSSPVTKSFNRGEC
9 | 200 | 148 | 0.74 | GpH7-A5/GpH7-B3 variant K326_10E/GpL16-k0 (antibody, human IgG1, kappa, Heterodimerized anti-glypican-3 IgG1; mutation in the GpH7-B3 chain only; also called He Ab) heavy 1: not shown heavy 2: not shown light: DIVMTQSPLSLPVTPGEPASISCQASESLVHSNRNTYLHWYLQKPGQSPQLLIYKVSNRFSGVPDRFSGSGSGTDFTLKISRVEAEDVGVYYCSQNTHVPPTFGQGTKVEIERTVAAPSVFIFPPSDEQLKSGTASVVCLLNNFYPREAKVQWKVDNALQSGNSQESVTEQDSKDSTYSLSSTLTLSKADYEKHKVYACEVTHQGLSSPVTKSFNRGEC
10 | 199 | 119 | 0.6 | GpH7-A5/GpH7-B3 variant L328_09D/GpL16-k0 (antibody, human IgG1, kappa, Heterodimerized anti-glypican-3 IgG1; mutation in the GpH7-B3 chain only; also called He Ab) heavy 1: not shown heavy 2: not shown light: DIVMTQSPLSLPVTPGEPASISCQASESLVHSNRNTYLHWYLQKPGQSPQLLIYKVSNRFSGVPDRFSGSGSGTDFTLKISRVEAEDVGVYYCSQNTHVPPTFGQGTKVEIERTVAAPSVFIFPPSDEQLKSGTASVVCLLNNFYPREAKVQWKVDNALQSGNSQESVTEQDSKDSTYSLSSTLTLSKADYEKHKVYACEVTHQGLSSPVTKSFNRGEC
11 | 193 | 148 | 0.77 | GpH7-A5/GpH7-B3 variant K326_09D/GpL16-k0 (antibody, human IgG1, kappa, Heterodimerized anti-glypican-3 IgG1; mutation in the GpH7-B3 chain only; also called He Ab) heavy 1: not shown heavy 2: not shown light: DIVMTQSPLSLPVTPGEPASISCQASESLVHSNRNTYLHWYLQKPGQSPQLLIYKVSNRFSGVPDRFSGSGSGTDFTLKISRVEAEDVGVYYCSQNTHVPPTFGQGTKVEIERTVAAPSVFIFPPSDEQLKSGTASVVCLLNNFYPREAKVQWKVDNALQSGNSQESVTEQDSKDSTYSLSSTLTLSKADYEKHKVYACEVTHQGLSSPVTKSFNRGEC
12 | 177 | 137 | 0.77 | GpH7-A5/GpH7-B3 variant K326_08L/GpL16-k0 (antibody, human IgG1, kappa, Heterodimerized anti-glypican-3 IgG1; mutation in the GpH7-B3 chain only; also called He Ab) heavy 1: not shown heavy 2: not shown light: DIVMTQSPLSLPVTPGEPASISCQASESLVHSNRNTYLHWYLQKPGQSPQLLIYKVSNRFSGVPDRFSGSGSGTDFTLKISRVEAEDVGVYYCSQNTHVPPTFGQGTKVEIERTVAAPSVFIFPPSDEQLKSGTASVVCLLNNFYPREAKVQWKVDNALQSGNSQESVTEQDSKDSTYSLSSTLTLSKADYEKHKVYACEVTHQGLSSPVTKSFNRGEC
13 | 160 | 124 | 0.78 | GpH7-A5/GpH7-B3 variant L328_07I/GpL16-k0 (antibody, human IgG1, kappa, Heterodimerized anti-glypican-3 IgG1; mutation in the GpH7-B3 chain only; also called He Ab) heavy 1: not shown heavy 2: not shown light: DIVMTQSPLSLPVTPGEPASISCQASESLVHSNRNTYLHWYLQKPGQSPQLLIYKVSNRFSGVPDRFSGSGSGTDFTLKISRVEAEDVGVYYCSQNTHVPPTFGQGTKVEIERTVAAPSVFIFPPSDEQLKSGTASVVCLLNNFYPREAKVQWKVDNALQSGNSQESVTEQDSKDSTYSLSSTLTLSKADYEKHKVYACEVTHQGLSSPVTKSFNRGEC
14 | 219 | 138 | 0.63 | GpH7-A5/GpH7-B3 variant L328_04F/GpL16-k0 (antibody, human IgG1, kappa, Heterodimerized anti-glypican-3 IgG1; mutation in the GpH7-B3 chain only; also called He Ab) heavy 1: not shown heavy 2: not shown light: DIVMTQSPLSLPVTPGEPASISCQASESLVHSNRNTYLHWYLQKPGQSPQLLIYKVSNRFSGVPDRFSGSGSGTDFTLKISRVEAEDVGVYYCSQNTHVPPTFGQGTKVEIERTVAAPSVFIFPPSDEQLKSGTASVVCLLNNFYPREAKVQWKVDNALQSGNSQESVTEQDSKDSTYSLSSTLTLSKADYEKHKVYACEVTHQGLSSPVTKSFNRGEC
